The nature of the series: soluble on expression in E. coli; label from the status in PepcDB or PDB records.
Regarding “MEYIKRKKTRKVRVGDIYIGGDAKITVQSMTNTDTRDVEATVNQIKMLEDIGCDIIRVAVVDQEAAEAIKEIKKSIKIPLVADIHFDYRLAISSMENGADKIRLNPGNIGDRERVRKVVEVAKSRQIPIRIGVNSGSLEKNVIEKYGGITPEAMVESALQHVRILEELDFYDIVISLKASSVPMTIAAYRLMSEKTDYPLHIGVTEAGTVFKGTIKSCAGLGCLLAEGIGDTIRVSLTGDPKEEVLVGHELLRALGIEKGGIELVSCPTCGRCQIDLIGIAEKVEERLEGLDKNIKVAIMGCAVNGPGEAKEADIGIAGGKGEVLLFKKGVIVRKIPQERAVEELMEEILRM”, the “soluble on expression in E. coli” value is on record as “soluble”.

On to “MKKPELTATSVEKFLIEKFDSVSDLMQLSEGEESRAFSFDVGGRGYVLRVNSCADGFYKDRYVYRHFASAALPIPEVLDIGEFSESLTYCISRRAQGVTLQDLPETELPAVLQPVAEAMDAIAAADLSQTSGFGPFGPQGIGQYTTWRDFICAIADPHVYHWQTVMDDTVSASVAQALDELMLWAEDCPEVRHLVHADFGSNNVLTDNGRITAVIDWSEAMFGDSQYEVANIFFWRPWLACMEQQTRYFERRHPELAGSPRLRAYMLRIGLDQLYQSLVDGNFDDAAWAQGRCDAIVRSGAGTVGRTQIARRSAAVWTDGCVEVLADSGNRRPSTRPRAKE”, for which the “soluble on expression in E. coli” value was “soluble”.

On to “STTGLVTPGDVIGKATEFKAGKGAYVNDATIYASLTGTCRIVSPLPESIDQRAIVEVTGHKAHGPIPETGSVVIARVTKVMTKMAAVDILCVGSKAVRENFAGVIRQQDVRATEIDKVDMHQSFHAGDIVRAMVLSLGDARAYYLSTAKNELGVVSAESAAGETMVPISWTEMQCPLSGQTEQRKVAKVGN”, for which the “soluble on expression in E. coli” value is reported as “soluble”.

As to “MTATASDDEAVTALALSAAKGNGRALEAFIKATQQDVWRFVAYLSDVGSADDLTQETFLRAIGAIPRFSARSSARTWLLAIARHVVADHIRHVRSRPRTTRGARPEHLIDGD”, the “soluble on expression in E. coli” value is “soluble”.

Regarding “MSKGHSLQDPYLNTLRKERVPVSIYLVNGIKLQGQIESFDQFVILLKNTVSQMVYKHAISTVVPSRPVRLPSGDQPAEPGNA”, the “soluble on expression in E. coli” value is “soluble”.

As for “MGSDKIHHHHHHMIDVEEILSKMNLNQKINYDRVMQKMVQVWEKNEQRPTILMHVCCAPCSTYTLEYLTKYADVTIYFANSNIHPKAEYHKRAYVTKKFVSDFNERTGNSVQYLEAPYEPNEYRKLVRGLEEEPEGGDRCQVCFDYRLDKTAQVAMDLGFDYFGSALTISPHKNSQTINSIGIDVQKIYTTHYLPSDFKKNQGYKRSVEMCEEYDIYRQCYCGCVYAAQAQNIDLVQVKKDATAFLLDKDVEKDYSHIKFTVTKLDI”, the “soluble on expression in E. coli” value is listed as “not soluble”.

As for “MGSDKIHHHHHHMHFFIRIKEKYIECIRGNINDMQTADYSMVSEIIGNPQRLGMLVFLMDGRFRTVNEVTKATNLKPNTVSLYLSHFEKISWLDDYFQGRWHYYRLANSEVASLIEKILVLSPKKKITYFNLNEEEKLLHTGRSCYNHLAGQLGVQLLCSMKTLNWIRQDGSAFQLTDKGQSNLNNALEIKFSFQEQKSWDFILPCMDWSERQLHLKGIVGKKILGAMLDKEWLYRPNRTRALALTYKGKEKFGDFLQIRA”, the “soluble on expression in E. coli” value is “not soluble”.

For “MSLGEPAQPGAKKYVLFDVDGTLIDAVDNQRRVWRVWAERYGLDPGEVYQVALRTRPMETFAQVAPDRDPQECLAALHELEDEDVRSGVYAAFDGASELLDALPPESWALVTSNYEHRVRGRFARTGLPVPSIIVDAASVEEGKPSPVPYLLAAKRLGADPQDCLVIEDAPSGVRSALRAGMTVWGVNAPVAVDGVHRHFGSLREAIRDILAVTSGTRPHEPRGSAAVEGHHHHHH”, the “soluble on expression in E. coli” value was “soluble”.

For “MGSDKIHHHHHHQVAYFMSFAGNETFIRELVKQFGSDEVLIVYKTNVKENVLQLQQGHIIKHAIEFKKFQVTSFVKGIKLARVTLFDNYYPELSAINKTKKDYFIQMWHANGAIKAFGWEDPSTYHRSVEDQQRFQRVYDSFDQIVVGSEKMADVFQRSWHVASDKIDRIGYPRTDKYFEESWIEKARKKIQTKLPELTQKRVILYAPTYRKDVSFSLPDDWRKIKVPQDAVLIVRLHPHLANVERQIVDASPDRVIMVDHFISTQELLCVADTLITDYSSIAFDFSLLDNARSVIFFTYDLEEFERTVGIQASFKAAFLNQMVNTVEQLNDAILFGNSDKNVIHKLNQQWNTLNDGHSSARLIKQVKERCTDE”, the “soluble on expression in E. coli” value is reported as “not soluble”.

Take “MVTPSLRLVFVKGPREGDALDYKPGSTIRVGRIVRGNEIAIKDAGISTKHLRIESDSGNWVIQDLGSSNGTLLNSNALDPETSVNLGDGDVIKLGEYTSILVNFV”: the “soluble on expression in E. coli” value is on record as “soluble”.

As to “MGSDKIHHHHHHMIPEDVLAFFDLKQGRRPKAILNVLVGKMTVSALFWGLEYDILEYLNFWKTIDTTSFLENVDRAVEGGFLAKKDELIYLTEAGQQKQFSCTTPTPFIKKVRLDEAIDLLLLANQVISEFSFKNNRYIPVSDNLRINVILKNWFKQLKSRNHHTTDIVQKYTQGLDELLSQLQQHDADILLSYLPNHVDPGWTIDQLAQAFGISKFQMELKIRLIFSKIISDAVLTKIAPFVDLLNSTIKENVMPDSTYQTWQLIRQGKTVDEVARLKHVKTNTVKEHILMAAILDSNFPFDKFVRFNFEIGKHPTEVDFRSIQSQIADITFFDFRLIQIRKIKEQQNNNGNR”, the “soluble on expression in E. coli” value is recorded as “not soluble”.

For the sequence “MGSDKIHHHHHHAQTTDPNQLKNEGNDALNAKNYAVAFEKYSEYLKLTNNQDSVTAYNCGVCADNIKKYKEAADYFDIAIKKNYNLANAYIGKSAAYRDMKNNQEYIATLTEGIKAVPGNATIEKLYAIYYLKEGQKFQQAGNIEKAEENYKHATDVTSKKWKTDALYSLGVLFYNNGADVLRKATPLASSNKEKYASEKAKADAAFKKAVDYLGEAVTLSPNRTEIKQMQDQVKAMIK”, the “soluble on expression in E. coli” value is “not soluble”.

With “MSLSNSLLPPNASGLERDIEQVIVQSTDLPIRIKDLWNPYSCHLSLLPWLAWALSVDEWDDRWPEHIKRQVVQDSFDVHRFKGTPYAVQKALDSLNIKTHLREWWEPDGSQEPGTMTVVALINENLTDDDNGLITEAMLEQVTRVIHTAKRGVIHFDVELGISLDETLGFSGAIGPSIAEIDFSSDFLPIVPEKGSADMAFSAALYGIGSADFLADMSGVVPDESSSHVFVCGGLAGISASWLEFEGDLEGHHHHHH”, the “soluble on expression in E. coli” value is “soluble”.

Consider “MSVSNMPPIDRAEQSTAHEIQQAKVIDLNDRVLNLDNPDDKMISAFANYAVQTENWQQNALQALTSDKKGLTPEKLLVLQDHVLNYNVEVSLVGTLARKIVAAVETLTRS”, for which the “soluble on expression in E. coli” value is recorded as “soluble”.

As to “HEGVHRKPSLLAHPGPLVKSEETVILQCWSDVRFQHFLLHREGKFKDTLHLIGEHHDGVSKANFSIGPMMQDLAGTYRCYGSVTHSPYQLSAPSDPLDIVITGLYEKPSLSAQPGPTVLAGESVTLSCSSRSSYDMYHLSREGEAHERRFSAGPKVNGTFQADFPLGPATHGGTYRCFGSFRDSPYEWSNSSDPLLVSVTGNPSNSWPSPTEPSSETGNPRHLHAAAEQKLISEEDLNLDLVPRGSSSHHHHHHSSG”, the “soluble on expression in E. coli” value is “soluble”.

Turning to “MSLALQEQCLWETLTPQRPDRAPLKGELTADVCIIGAGFTGLSAAVHLLEQGKRVCVVEAHRAGHGGSGRNVGLVNAGMWIPPDEIEAGFGEQVGSQLNRMLGAAPSLVFSLVDKYHIDCQLRREGTLHMAHNARGEADLRSREEQWKRRGAPVELLTGAACEAATGTRKIAAALLDRRAGTLNPMAYVSGLARAATELGGRLFDHSPVTRLERQGQRWSVQTEQGSVLAEQVVIASNAYTEGDWTELRRNFFPGYYYQVASAPLTEEAARQILPGGQGSWDTRQVLSSIRRDAEGRLLLGSLGNGSQKPLWFLKAWADRVQQHYFPYLKPVEWECTWTGCIAFTPDHLMRLFEPAPGLVAVTGYNGRGVTTGTVVGKAFADYLCNGDPQALPIPFAAMQPLAGVGLRSCLYEAGFSLYHAGQCLRIVEGHHHHHH”, the “soluble on expression in E. coli” value is on record as “not soluble”.

With “MKQVAKGLQMEGNFGTAHVYRSSLNAIIAYRGKGDFTFHEVTPEWLKGFEIHLRGRGCSWNTVSTYLRTFRAVYNRAVDCRGAVYVPHLFRSVYTGTRADRKRALCDEDMQKVFAKLPSSPAVTPAMRRTQELFVLMFLLRGLPFVDLAYLRKSDLHDNVITYRRRKTGRPLSVTLTREAMVLLKRYMNRDSSSPYLFSLLESREGTKEAYREYQLALRSFNQQLLLLGQLLGLGDRLSSYTARHTWATTAYYCEIHPGIISEAMGHSSITVTETYLKPFRNKKIDEANQLVTDFVKRIVTGLIA”, the “soluble on expression in E. coli” value was “not soluble”.

For “MTDILIDNTATETVRTLIRAFPLVPVSQPPEQGSYLLAEHDTVSLRLVGEKSSVIVDFASGAAQYRRTKGGGELIAKAVNHTAHPTVWDATAGLGRDSFVLASLGLAVTAFEQHPAVACLLSDGIRRALLNPETQNTAAHINLHFGNAAEQMPALVQTQGKPDIVYLDPMYPERRKSAAVKKEMTYFHRLVGEAQDEAALLHTARQTAKKRVVVKRPRLGEHLAGQDPAYQYTGKSTRFDVYLPYGTDKG”, the “soluble on expression in E. coli” value is “not soluble”.

On to “MSLATLKDVALHAGVSVTTVSNFINNKKKLKDDTRHNILEAIQATGYRHNALAASLKKSSASLRSIGIISIVDQNPFFSELFFKLENECFKQDFTVISCFRHKDKEDLHTYINLMSGRVDGIILISLKRDKIDNVIKHIHAVPVVAIAFDIGDVMSLCGGTEFNLHNETGGYIAGRFLLSKGHKKIACVTGPKALKTTVNRIAGLKKALADFNLPEDSVDFIEGNYTYQSGVDAMYQLFSSVALPTAIICHNDLMAIGVQNAANELGLKIPRELSVIGYDDIEMSKLSFPSLTTVRIPLDDIACQALEGLSMKMATPGSKAIISATPSLVVRGSVSKGIITITTDPNSSSVDKLAAALEHHHHHH”, for which the “soluble on expression in E. coli” value is listed as “soluble”.

For the sequence “MGSSHHHHHHSSGRENLYFQGHMIMIFTSSCCDNLSIDEIIERAEKGDCEAQYIVGFYYNRDSAIDSPDDEKAFYWLKLAAEQGHCEAQYSLGQKYTEDKSRHKDNEQAIFWLKKAALQGHTFASNALGWTLDRGEAPNYKEAVVWYQIAAESGMSYAQNNLGWMYRNGNGVAKDYALAFFWYKQAALQGHSDAQNNLADLYEDGKGVAQNKTLAAFWYLKSAQQGNRHAQFQIAWDYNAGEGVDQDYKQAMYWYLKAAAQGSVGAYVNIGYMYKHGQGVEKDYQAAFEWFTKAAECNDATAWYNLAIMYHYGEGRPVDLRQALDLYRKVQSSGTRDVSQEIRETEDLL”, the “soluble on expression in E. coli” value is on record as “soluble”.

“MSLSSAQQWSYVRQLQREIRRSDVLDLPLEKLPVVVFDLETSGFYPDQGDRILSIGAVKVVGLTIQEEETFYSVVHTDTVPPENILELTGLSVEELEAAPPLTSVLESFYAFIRHSTLVAHHASHEKAFMSHVTWQTMKLPFEHRVIDTSFLTKIVAPQELVTLDDCCAYYSIPVQNRHHAFEDSLMTAKLWIAAIAAAREAGFETLRDIYVHLAHQREGHHHHHH”: the “soluble on expression in E. coli” value is “soluble”.

With “MIEPIWIDEQVALAIHERLISLHSGASGVRDKELLKSALARPLNLLAYDQQADVIHLAAAYTAGILQNHPFVDRNKRTGFVVGVLFLELNGYRFTAAEEDSAQAVIALAAGSLDEARFKLFLADNSIPV”, the “soluble on expression in E. coli” value was “not soluble”.

As to “MQDKYGVNHDHYCYESSDVLINLLNIRDPDELTQAEADFNLIRYSEYCSDLDELEDFDSNHFLNLHWVLFQDIYEWAGTIRDVDISKANTRFCTCSRVEPELNKAISRIPLIRFCRNKHELVALVADIFSDLNVVHPFREGNGRTTRFFFEELLHVAGYRIEWPVITKEEWVDANIHGYFGQLHKLEVIFDAAIIESLEHHHHHH”, the “soluble on expression in E. coli” value is on record as “not soluble”.

Source of the values: the DeepSol protein solubility set.
